According to patent US20220119490A1 (Genentech, published 2022):

How the values were obtained:
[1] = target: T1, PTPRD S431L variant extracellular domain (human, UniProt P23468 21-1265); assay: extracellular interaction screen: pentameric PTPRD variant ECD on ECD-Fc prey (FIG. 5L)
T1 construct: extracellular domain; also called FN2 mutant
T1 sequence (looked up): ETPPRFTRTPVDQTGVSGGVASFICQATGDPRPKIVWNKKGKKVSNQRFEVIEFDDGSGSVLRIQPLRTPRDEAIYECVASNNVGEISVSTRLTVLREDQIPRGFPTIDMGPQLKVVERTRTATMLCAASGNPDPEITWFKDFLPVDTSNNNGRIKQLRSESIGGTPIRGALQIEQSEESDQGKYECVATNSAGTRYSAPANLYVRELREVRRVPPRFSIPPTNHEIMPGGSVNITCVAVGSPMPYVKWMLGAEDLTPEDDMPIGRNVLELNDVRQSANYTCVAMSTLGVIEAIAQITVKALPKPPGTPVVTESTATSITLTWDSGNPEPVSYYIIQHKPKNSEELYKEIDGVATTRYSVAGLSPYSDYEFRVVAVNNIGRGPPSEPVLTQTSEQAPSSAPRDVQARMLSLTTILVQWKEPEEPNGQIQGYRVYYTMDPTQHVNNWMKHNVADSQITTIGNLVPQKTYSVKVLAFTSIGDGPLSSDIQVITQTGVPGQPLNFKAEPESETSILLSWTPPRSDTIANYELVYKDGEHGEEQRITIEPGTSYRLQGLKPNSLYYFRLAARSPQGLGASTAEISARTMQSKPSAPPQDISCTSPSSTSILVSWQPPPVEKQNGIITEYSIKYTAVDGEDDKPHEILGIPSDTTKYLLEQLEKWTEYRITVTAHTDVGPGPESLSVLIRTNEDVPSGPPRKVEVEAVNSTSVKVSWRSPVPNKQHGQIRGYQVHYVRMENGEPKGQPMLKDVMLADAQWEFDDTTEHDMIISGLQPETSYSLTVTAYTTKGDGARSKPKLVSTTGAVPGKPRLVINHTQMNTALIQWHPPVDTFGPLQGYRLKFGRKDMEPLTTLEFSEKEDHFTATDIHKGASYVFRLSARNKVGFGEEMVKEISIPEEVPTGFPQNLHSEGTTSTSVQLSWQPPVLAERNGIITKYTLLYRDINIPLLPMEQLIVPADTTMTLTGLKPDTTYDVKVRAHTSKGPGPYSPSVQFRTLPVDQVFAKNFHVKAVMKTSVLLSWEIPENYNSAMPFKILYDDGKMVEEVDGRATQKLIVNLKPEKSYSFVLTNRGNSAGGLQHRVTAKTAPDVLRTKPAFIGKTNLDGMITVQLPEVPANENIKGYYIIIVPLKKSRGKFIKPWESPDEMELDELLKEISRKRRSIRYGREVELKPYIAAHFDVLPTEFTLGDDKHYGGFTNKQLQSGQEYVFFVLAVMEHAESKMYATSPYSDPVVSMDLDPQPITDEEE

[2] = target: T2, PTPRD ΔG61 ΔE106 variant extracellular domain (human, UniProt P23468 21-1265); assay: as above
T2 construct: extracellular domain; meaning of the deletion notation not explained; also called IG1 mutant
T2 sequence (looked up): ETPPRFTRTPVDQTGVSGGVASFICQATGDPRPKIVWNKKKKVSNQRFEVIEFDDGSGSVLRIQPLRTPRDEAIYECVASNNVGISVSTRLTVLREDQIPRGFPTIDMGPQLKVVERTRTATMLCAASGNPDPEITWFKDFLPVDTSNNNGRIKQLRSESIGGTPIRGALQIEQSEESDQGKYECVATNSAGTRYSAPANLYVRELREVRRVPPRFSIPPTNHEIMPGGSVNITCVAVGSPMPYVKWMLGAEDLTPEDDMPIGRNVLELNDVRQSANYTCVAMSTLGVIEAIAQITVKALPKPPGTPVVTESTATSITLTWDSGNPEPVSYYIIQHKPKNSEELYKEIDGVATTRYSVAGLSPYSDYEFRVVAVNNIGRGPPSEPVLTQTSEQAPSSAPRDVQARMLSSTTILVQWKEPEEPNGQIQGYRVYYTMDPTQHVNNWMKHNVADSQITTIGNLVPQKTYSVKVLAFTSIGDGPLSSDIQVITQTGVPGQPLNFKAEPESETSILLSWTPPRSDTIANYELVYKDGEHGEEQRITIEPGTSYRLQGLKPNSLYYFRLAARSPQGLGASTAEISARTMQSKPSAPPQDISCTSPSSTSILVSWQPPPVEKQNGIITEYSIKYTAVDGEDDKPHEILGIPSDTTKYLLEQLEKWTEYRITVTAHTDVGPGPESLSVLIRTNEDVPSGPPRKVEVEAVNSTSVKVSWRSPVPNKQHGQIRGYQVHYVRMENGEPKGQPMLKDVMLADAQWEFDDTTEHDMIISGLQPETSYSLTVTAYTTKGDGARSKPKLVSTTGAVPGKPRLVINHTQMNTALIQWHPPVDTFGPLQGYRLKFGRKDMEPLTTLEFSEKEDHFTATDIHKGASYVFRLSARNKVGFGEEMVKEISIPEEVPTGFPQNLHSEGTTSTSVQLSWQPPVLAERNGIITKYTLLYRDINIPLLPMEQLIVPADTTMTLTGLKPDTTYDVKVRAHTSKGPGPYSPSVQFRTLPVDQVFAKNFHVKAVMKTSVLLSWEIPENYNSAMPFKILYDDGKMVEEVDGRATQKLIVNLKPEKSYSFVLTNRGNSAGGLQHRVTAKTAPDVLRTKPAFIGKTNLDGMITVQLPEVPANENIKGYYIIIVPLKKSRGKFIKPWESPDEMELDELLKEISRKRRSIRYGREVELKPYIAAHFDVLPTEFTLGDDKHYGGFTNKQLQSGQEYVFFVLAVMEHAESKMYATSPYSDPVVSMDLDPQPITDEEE

B1: LRRC4B extracellular domain (receptor, human, UniProt Q9NT99 36-576, looked up)
chain: AGGGGVAVTSAAGGGSPPATSCPVACSCSNQASRVICTRRDLAEVPASIPVNTRYLNLQENGIQVIRTDTFKHLRHLEILQLSKNLVRKIEVGAFNGLPSLNTLELFDNRLTTVPTQAFEYLSKLRELWLRNNPIESIPSYAFNRVPSLRRLDLGELKRLEYISEAAFEGLVNLRYLNLGMCNLKDIPNLTALVRLEELELSGNRLDLIRPGSFQGLTSLRKLWLMHAQVATIERNAFDDLKSLEELNLSHNNLMSLPHDLFTPLHRLERVHLNHNPWHCNCDVLWLSWWLKETVPSNTTCCARCHAPAGLKGRYIGELDQSHFTCYAPVIVEPPTDLNVTEGMAAELKCRTGTSMTSVNWLTPNGTLMTHGSYRVRISVLHDGTLNFTNVTVQDTGQYTCMVTNSAGNTTASATLNVSAVDPVAAGGTGSGGGGPGGSGGVGGGSGGYTYFTTVTVETLETQPGEEALQPRGTEKEPPGPTTDGVWGGGRPGDAAGPASSSTTAPAPRSSRPTEKAFTVPITDVTENALKDLDDVMKTTK
notes: extracellular domain; ECD-Fc prey; also called NGL-3; netrin-G ligand-3
B1: no binding [1]; no binding [2].
